Assay results reported in article doi:10.1101/2022.02.25.482063.

Biological target: motavizumab
Experiment: SPR

“RSV F glycoprotein S275H, on virions of recombinant RSV-A2 mKate2 (natural protein)” gave a fold reduction of the on-rate (ka) against WT of over 6 fold.
